What was measured:
[1] = target: N-terminal FLAG-tagged human formyl-peptide receptor 2 fused C-terminally to Renilla luciferase (FPR2-Rluc8) (human) (UniProt P25090); experiment: FRET or BRET; BRET as a1, in CRISPR-Cas9-edited HEK293 cells without GRK5/6 (ΔGRK5/6); WKYMVm 10 min
[2] = target: N-terminal FLAG-tagged human formyl-peptide receptor 2 fused C-terminally to Renilla luciferase (FPR2-Rluc8) (human) (UniProt P25090); experiment: FRET or BRET; BRET as a1, in CRISPR-Cas9-edited HEK293 cells without GRK2/3 (ΔGRK2/3); WKYMVm 10 min
[3] = target: FPR2 S326A-RLuc8 (human) (UniProt P25090); experiment: FRET or BRET; BRET in live HEK293 cells co-transfected with receptor-RLuc8 (donor, 400 ng) and Venus-tagged mGsi, β-arrestin 1 or β-arrestin 2 (acceptor), 4:1 acceptor:donor; 37°C, Hank's balanced salt solution, 5 μM coelenterazine H; increasing WKYMVm, read 10 min after agonist; ratio acceptor:donor minus untreated; Emax by nonlinear regression; pertussis toxin pretreatment had no effect on β-arrestin recruitment
[4] = target: N-terminal FLAG-tagged human formyl-peptide receptor 2 fused C-terminally to Renilla luciferase (FPR2-Rluc8) (human) (UniProt P25090); experiment: as above
[5] = target: FPR2 T331A-RLuc8 (human) (UniProt P25090); experiment: as above
[6] = target: FPR2 S328A-RLuc8 (human) (UniProt P25090); experiment: as above
[7] = target: N-terminal FLAG-tagged human formyl-peptide receptor 2 fused C-terminally to Renilla luciferase (FPR2-Rluc8) (human) (UniProt P25090); experiment: FRET or BRET; BRET as a1, in ΔQ-GRK cells co-transfected with GRK2; WKYMVm 10 min
[8] = target: N-terminal FLAG-tagged human formyl-peptide receptor 2 fused C-terminally to Renilla luciferase (FPR2-Rluc8) (human) (UniProt P25090); experiment: FRET or BRET; BRET as a1, in ΔQ-GRK cells co-transfected with GRK3; WKYMVm 10 min
[9] = target: N-terminal FLAG-tagged human formyl-peptide receptor 2 fused C-terminally to Renilla luciferase (FPR2-Rluc8) (human) (UniProt P25090); experiment: FRET or BRET; BRET as a1, FPR2-RLuc8 with Venus-β-arrestin in Control cells of the GRK-edited HEK293 panel; WKYMVm 10 min
[10] = target: N-terminal FLAG-tagged human formyl-peptide receptor 2 fused C-terminally to Renilla luciferase (FPR2-Rluc8) (human) (UniProt P25090); experiment: FRET or BRET; BRET as a1, in ΔQ-GRK cells co-transfected with GRK6; WKYMVm 10 min
[11] = target: FPR2 ΔABC with S328 (printed once as S329) reintroduced, RLuc8 fusion (human) (UniProt P25090); experiment: FRET or BRET; BRET in live HEK293 cells co-transfected with receptor-RLuc8 (donor, 400 ng) and Venus-tagged mGsi, β-arrestin 1 or β-arrestin 2 (acceptor), 4:1 acceptor:donor; 37°C, Hank's balanced salt solution, 5 μM coelenterazine H; increasing WKYMVm, read 10 min after agonist; ratio acceptor:donor minus untreated; Emax by nonlinear regression; pertussis toxin pretreatment had no effect on β-arrestin recruitment
[12] = target: N-terminal FLAG-tagged human formyl-peptide receptor 2 fused C-terminally to Renilla luciferase (FPR2-Rluc8) (human) (UniProt P25090); experiment: as above; remark: listed apart in the source
[13] = target: FPR2 ΔAB-RLuc8 (human) (UniProt P25090); experiment: as above
[14] = target: FPR2 ΔABC with S326 reintroduced, RLuc8 fusion (human) (UniProt P25090); experiment: as above
[15] = target: FPR2 ΔAC-RLuc8 (human) (UniProt P25090); experiment: as above
[16] = target: FPR2 ΔABC-RLuc8 (all C-terminal serine and threonine residues mutated to alanine) (human) (UniProt P25090); experiment: as above
[17] = target: FPR2 ΔBC-RLuc8 (human) (UniProt P25090); experiment: as above
[18] = target: FPR2 ΔABC with T331 reintroduced, RLuc8 fusion (human) (UniProt P25090); experiment: as above
[19] = target: N-terminal FLAG-tagged human formyl-peptide receptor 2 fused C-terminally to Renilla luciferase (FPR2-Rluc8) (human) (UniProt P25090); experiment: FRET or BRET; BRET as a1, in ΔQ-GRK cells co-transfected with GRK5; WKYMVm 10 min
[20] = target: Venus-tagged mini-Gsi (mGsi); experiment: BRET; settings: HEK293 cells; WKYMVm at x = -5 (highest concentration), 10 min; parent: est. 0.076; read off a plot
[21] = target: β-arrestin 2 fused to Venus fluorescent protein (UniProt P32121); experiment: BRET; settings: HEK293 cells; WKYMVm at x = -5 (highest concentration), 10 min; parent: est. 0.064; read off a plot

Substance | Emax (BRET) (normalized acceptor:donor ratio) [1] | Emax (BRET) (normalized acceptor:donor ratio) [2] | Emax (BRET) (normalized acceptor:donor ratio) [3] | Emax (BRET) (normalized acceptor:donor ratio) [4] | Emax (BRET) (normalized acceptor:donor ratio) [5] | Emax (BRET) (normalized acceptor:donor ratio) [6] | Emax (BRET) (normalized acceptor:donor ratio) [7] | Emax (BRET) (normalized acceptor:donor ratio) [8] | Emax (BRET) (normalized acceptor:donor ratio) [9] | Emax (BRET) (normalized acceptor:donor ratio) [10] | Emax (BRET) (normalized acceptor:donor ratio) [11] | Emax (BRET) (normalized acceptor:donor ratio) [12] | Emax (BRET) (normalized acceptor:donor ratio) [13] | Emax (BRET) (normalized acceptor:donor ratio) [14] | Emax (BRET) (normalized acceptor:donor ratio) [15] | Emax (BRET) (normalized acceptor:donor ratio) [16] | Emax (BRET) (normalized acceptor:donor ratio) [17] | Emax (BRET) (normalized acceptor:donor ratio) [18] | Emax (BRET) (normalized acceptor:donor ratio) [19] | also measured
β-arrestin 2 fused to Venus fluorescent protein (from UniProt P32121 1-409) (natural protein) | 0.0541 | 0.0807 | 0.0605 | 0.0854 | 0.0611 | 0.0608 | 0.0987 | 0.0949 | 0.098 | 0.0583 | 0.0111 | 0.0715 | 0.0396 | 0.0217 | 0.0691 | 0.0146 | 0.0015 | 0.0194 | 0.0971 | –
β-arrestin 1 fused to Venus fluorescent protein (from UniProt P49407 1-418) (natural protein) | 0.0299 | 0.0708 | 0.0623 | 0.0821 | 0.0667 | 0.0481 | 0.0822 | 0.0855 | 0.0931 | 0.0557 | -0.00162 | 0.0782 | 0.0359 | 0.00242 | 0.0638 | 0.00138 | 0.000955 | -0.000883 | 0.0884 | –
N-terminal FLAG-tagged human formyl-peptide receptor 2 fused C-terminally to Renilla luciferase (FPR2-Rluc8) (from UniProt P25090) DAC (… to …; R to A of the DRC motif) | – | – | – | – | – | – | – | – | – | – | – | – | – | – | – | – | – | – | – | response [20]: 0 N-BRET; response [21]: 0.033 N-BRET
